This note sets out measurements from the DeepSol protein solubility set.

The nature of this data set: soluble on expression in E. coli; label from the status in PepcDB or PDB records.
With “MGSDKIHHHHHHMLLAPEDKLNERRAEYPGIEVHPLKFCSSELQAGHWKFLMGAIGNQAAYIRQLGNIMRKNRNNLSIQAIRDGIQNSSLSDSLKDLADMRLDFAEQYIDDQLNVGSLIRPGRMIVVDVRDEFIEKDEALGLFVVLLQIFSEAKYQGQSFNKLIVFDECHKYIDSPDLVKGLVETVREMRHKGTSVMIASQDPPSVPIELIQLSSQIILHKFNAPDWLKHIQKACIGLKSLTPEKLGALKPGEAFIWSSKASDNAFVSDAMKIQCRPRVTKHGGDTLTAI”, the “soluble on expression in E. coli” value is on record as “not soluble”.

“DIGCYTLGLLPPFDAQDSSTDMGSSIGIANGVYRATGNIPIAVIGDSTFFHSGISALANAVYNQTPMLVLVLDNRSTAMTGQQPSPSKEIDIGEVAKGLGVKYVRYVDPFDVNSSIRELSNALKWVKDNKQPAVVIAKRACALLVMDNVEESNLPKA”: the “soluble on expression in E. coli” value is “not soluble”.

In the case of “SNAMNASAVETIYESTEDKAALTSVVDLVKLSDQYRQSAILHYAVADKLFDLTQTGRTPAEVAASFGMVEGKAAILLHALAALGLLTKEGDAFRNTALTERYLTTTSADYIGPIVEHQYLQWDNWPRLGEILRSEKPLAFQQESRFAHDTRARDAFNDAMVRLSQPMVDVVSELGVFARARTVIDLAGGHGTYLAQVLRRHPQLTGQIWDLPTTRDAARKTIHAHDLGGRVEFFEKNLLDARNFEGGAADVVMLNDCLHYFDAREAREVIGHAAGLVKPGGALLILTMTMNDDRVTPALSADFSLHMMVNTNHGELHPTPWIAGVVRDAGLAVGERSIGRYTLLIGQRSSGE”, the “soluble on expression in E. coli” value is recorded as “soluble”.

Regarding “MRVYYYMNIEELKRVIKDQREYLESLEKQKIIERELPFNVEQYLSKPNILAILGVRRSGKSTLGYLLVREKNFAYIDFSDDRLVNFTDFDTLTKAFYELYGDFTHVLIDEPQYVNGWELFVNRLRKEKSVIITGSNSSLLSGELASALTGRHVDLILFPFSFKEYLTFRGVKVDLYSTKSISLIKNELENYLKEGGFPETLSLGKRIIPSIYNDIITKDVIGRYKIRDVVKFKEFVNSMVKYYSTEISVRKLANLLKISTRTIEEWLNAIQESYLLFFVRRYSRSPKQFNGQRKVYVIDAGIVNYLTSFSYGGLMENVVAIQLLRKNQLEGIYYLRGEDYEVDFVDEKNGELIQVSYVSSQDEINRNEIRSLVKGSQITEFNKLTIVSWDLEDEIIVEGKKIRIVPLWKYLI”, the “soluble on expression in E. coli” value is on record as “soluble”.

On to “MGSDKIHHHHHHMISVCIATYNGEKYLAEQLDSILLQVSEEDELIISDDGSTDHTLEILRTYAANYPQIQLLQGPGQGVIANFAFALTHTKGEVIFLADQDDVWLPNKVTTVTEYFETHPDIQVVISDLKIVDADLQVTNPSYFKFRKVKPGFWRNAIKSGYIGAGMAFRQEMKNVILPIPPEVPMHDMWIGLLAARKKQTGLIKEPLVLYRRHGANVSPIITKTSFQQKLNWRVNLLKALHQRLKEQR”, for which the “soluble on expression in E. coli” value was “not soluble”.

Turning to “MFALVLFVCYLDGGCEDIVVDIYDTEQHCLYSMDDQRIRHGGCFPVEDFIDGFWRPAQQYSDFLEHHHHHH”, the “soluble on expression in E. coli” value is recorded as “not soluble”.

Regarding “MSNRFAVILAAGKGTRMKSKLYKVLHPVCGKPMVQHVVDQVSQLGLQKLVTVVGHGAEMVQEQLGNVSEFALQAEQLGTAHAVDQAAGVLANEEGTTLVICGDTPLITAETMEALLQQHKEAGAMATVLTAYIEEPAGYGRIVRNENGHVEKIVEHKDANEKELAIKEINTGTYCFDNKALFASLSKVSNDNVQGEYYLPDVIEILKNEGHIVSAYQTEHFDETLGVNDRVALSQAEIIMKNRINRKNMVNGVTIIDPSNTYISADAIIGSDTVLHPGTIIEGNTVIGSDCEIGPHTVIRDSEIGDRTTIRQSTVHDSKLGTEVSVGPFAHIRPDSVIGDEVRVGNFVEIKKTVFGNRSKASHLSYIGDAQVGEDVNLGCGSITVNYDGKNKFKTVIGNGVFIGCNSNLVAPVTVEDGAYVAAGSTITENVPSKALSVARARQVNKEDYVDQLLNKKKS”, the “soluble on expression in E. coli” value is “not soluble”.

Consider “MGSDKIHHHHHHMEYQTRQWLEEALFDLLATKKSLHNISIAELSEHAQIARRTFYRYYHSKEQVLTNYLDRLIQDYIIELQTEKLTNFEDLVNLFFQYWSQYTESLKILQEANLLVLILQRYYDKLPAAYTTVMAPWHITNSDQRQISYDSRFIIGGLYSIFDEWLKTDHQTMPVNELVTTALNTIKRMKDS”, for which the “soluble on expression in E. coli” value is on record as “not soluble”.

Take “MHELFHPIFANGEEKAALQQLIIALDASGKRYFLRNEILHTFSQYCQQAQKPTYFYYSSSVGKLIQYTHEIVLAEDGTWFVVRPRIASQEVWRLTSDLAKFDSMSIDAFLDVSDRLVNAYEPNILEIDLNSFYEASPSISDPRNIGQGLAFLNRYLCSQIATDPQYWVELVYLALRGLQYDGINLMIGDAIPSGIHLAKQIHAAIKFLSALPPEEPYEKFYIELQKLGFEPGWGNTAQRILETITLLDKLIDSPQPAVLEAFVARVPAVFRVVLVSIHGWVAQEDVMGRDETLGQVIYVLEQARSLENKLQQEIKLAGLEVLGIQPHVIILTRLIPNCEGTYCNLRLEKLHNTENAWILRVPFGEFNPEITNNWISKFEIWPYLETFALDAEKQLLAQFQGKPNLIIGNYSDGNLVAFLLARRLKVTHCNIAHSLEKPKNLFSNLYWQDSEEKYHFSVQFTADLITMNAADFIITSSYQEIFGTPESIGQYESYKFFTMPHLYHVVDGIDLFNPKFNMVPPGVNEQVFFPYSQTADRDPNVSKHVHDLLEHHHHHH”: the “soluble on expression in E. coli” value is listed as “not soluble”.

On to “PKDDRLSAWKFWALYAADTGGALRIDAGAVAAVTAGGNSLLAVGITEVIGDFHAGEIVEILGPEGEIIGRGEVAYDSAVLITMLGKQTAQLPEGLQRPVVHADYLSDYASRA”, for which the “soluble on expression in E. coli” value was “not soluble”.

Regarding “MTNNAVLQLRAERLARATRPFLARGNRVRRCQRCLLPLKSCLCDTLTPSQAKSRFCLVMFDTEPMKPSNTGRLIADILPDTAAFQWSRTEPPQALLELVQHPDYQPIVVFPASYAGEAREVISTPPAGKPPLFIMLDGTWPEARKMFRKCPYLDHLPVISVDLSRLSAYRLREIHAEGQYCTAEVAIALLDLAGDTEAATSLGEHFTRFKTRYLAGKTQHPGNVTALEHHHHHH”, the “soluble on expression in E. coli” value is given as “not soluble”.

For “MNKLKYLQGYPEHILAQVAPMVENGKLAEWVKKKYPTMHDITSEKALFDYTQALKNKYIKKSSPLSKVVYDPKIHVVNNALGLHTFVSRIHGNKLKAKNEIRISSVFRKAPEPLLRMLVVHELAHIKEKEHNKAFYALCCHMEPEYHQLEFDARLYLTYLETLLEHHHHHH”, the “soluble on expression in E. coli” value is listed as “soluble”.

For “MIPRVRAPELPQNYPWLNTEQPLSIKQLNGRVVILDFWTYCCINCLHVLPDLKYLEQKYKDSLTVIGVHSAKFDNEQETENIRQAILRYDIEHPVLVDKDFRVWQEYAVRAWPTLMVIDPKGYVIGYVSGEGNRDKLDQLITQVIQEHQGAINFQQLSLTLEKQRQPLITPLAFPGKVLATPSGLFVADSGHHRIVVSDFNGEILHLIGNGKSGLTDGNFQEAQFSAPQGMAFDMENQILYLADTENHALRRVDINQQTVETIAGTGEQSRNIQPHGGVGLETALNSPWDLVNIENSLYIAMAGVHQIWQMDLASGVIKTYAGTGVEACLDASLTESAFAQPSGITNNEQELYIADSEISSIRGVGLVEPQEVRTVCGSGGLFGFGDVDGQGEDVRLQHCLGVEYFQNYLWVADTYNHKIKSVSPHTGNCQTVLGDGLAGLQNGQGKNTRFFEPSGLSAIDSYLYISDTNNHVIRRVDLRTLEVTTMQFNGLCAPDVCIPNNFLEHHHHHH”, the “soluble on expression in E. coli” value was “not soluble”.

With “MGAVGRGRRMSERHLRRSTHKVGDITLGAVHRLNCHCGAVQIDLDLPHGLVDPRRCDCSMCRRRGAIVASVPLQGLHVRQGEDVLRLYQFNTHAAAHYFCGVCGIYTHHRRRSNPNEYGYNVGCLEGVNPYALNITVPVEDGIHHPADRVAPQLEHHHHHH”, the “soluble on expression in E. coli” value was “not soluble”.

As to “TPLSQSSSSKNASDVSGSIQPVDSKSGLQMLFSGYRGIGGVQTLDLQQMSSDIPNAETKTVADQVINAWKQMKYTPFGRSTGSFTIRLNPEHLGFVTIKLTNENGMFQSKIIASSQSAKELLEQHLPQLKQSLPNMAVQIDRFTLPVQS”, the “soluble on expression in E. coli” value is recorded as “not soluble”.

As for “MGISEIIRSHRKKENLTQEQVANYLNISTPAVNKWENGITYPDITLLAPLARILKIDVNTLLAFNEELTEKEVNKLGRSVGEIVEKEGYQKAFEKGSDLIKQYSSCDELILRISSILRLFLVTAKVEKKDIYEDKIIAWAEIVAASRNEKTADMAKIFLSAVYRDKKEYKKAKEILDKVPDMELGSDKKIQQLLLLESSGEFDKAYGACEEVLLYNAQESLGAMVLIIRMLLKENKFSEAEEYTQRAKKLVEVFDLGEYSKYTLELSLIKEKRDEEKAVELIRNMIDNADSMNNFMRSKLYKHRKIEVTNSLDKDRYKKIVRMSIIKDKALDFVKDDPRVKSLLK”, the “soluble on expression in E. coli” value is “not soluble”.

For “MGSDKIHHHHHHMDHRQTFLSRYDTAACKAAHEIISCYSTSFGLATKLLRGRIRTDISNLYAMVRIADEIVDGTAQMAGLEPNAVSQLLDDYEAAVLAAPTQRFHADPILHAWALSARRCKFKTEHVQAFFTSMRNDLHKHNYEAAEFNEYVYGSAEVIGLMCLDAFLVEQHPRPHERTMMEHGARSLGSAFQKINFLRDLEEDTHVLGRNYFPQLTGELTDATKALLVADIRTDLAAAYRCIPLLPFDARVGVQAAADLFTALTDRIQEASAVEVTHTRIRIPKAQKIAIITRAPWRALHG”, the “soluble on expression in E. coli” value was “not soluble”.

Take “MLDLLVVAPHPDDGELGCGGTLARAKAEGLSTGILDLTRGEMGSKGTPEEREKEVAEASRILGLDFRGNLGFPDGGLADVPEQRLKLAQALRRLRPRVVFAPLEADRHPDHTAASRLAVAAVHLAGLRKAPLEGEPFRVERLFFYPGNHPFAPSFLVKISAFIDQWEAAVLAYRSQFTGEAASETVGPKGVEARKAMRRYWGNYLGVDYAEPFVSPLPVLYVPWSRA”: the “soluble on expression in E. coli” value is listed as “soluble”.

With “MGSDKIHHHHHHMEHECDTLPHWLTGSPQGEAGHTPAACNSAVAAQPAYPAGTRQPEKSAHAAEASRAHDRTATGVAPTGFLTLFTEEEIGTPSPAARRAAPVISPLVRFGSAQDRIEFVRQRIRQLGFDSFSYSATRTSAHHKTMFVLTSYESRSWLTRYFRERYFELDPRVALASPTGLPFLWNTADMRADLPRAQMRSERLGGLIDMLEATGRKSGILTQMPLPEPELSASLCFNSETGNPRWMTESIVAETLMFAHMIHEFIWTHAKSVIGIAPAQQQRVTLSELQHAVLRAVVQGQRDKEIAYFLGLSPHNVDYHLRRLRQLFNVRNRVQLINVAQAYVS”, the “soluble on expression in E. coli” value is listed as “not soluble”.

With “MENLKNVAPIEDFNWDAYENGEAVTSASHEDLEKAYDGTLNKVNDREVVDGTVIAMNKREVVVNIGYKSDGIIPLNEFRYNPDLKVGDTVEVYIENQEDKKGQLVLSHRKARATRSWDRVNAALENEEIIKGFIKCRTKGGMIVDVFGIEAFLPGSQIDVKPIRDYDVFVGKTMEFKVVKINQEFKNVVVSHKALIEAELEQQKKEIIGKLEKGQVLEGTVKNITSYGVFIDLGGVDGLIHITDLSWGRVSDPKEVVELDQKLNVVILDFDDEKKRIALGLKQLTPHPWDALDTDLKVGDKVKGKVVVMADYGAFIEIATGVEGLIHVSEMSWSQHLRSAQDFMKVGDEVEAVVLTLDREERKMSLGIKQLKQDPWETIEEKYPVGSKHTAKVRNFTNFGVFVEIEEGVDGLIHISDLSWTKKVKHPSEFTQIGADIEVQVLEIDKENRRLSLGHKQLEENPWDVFETVFTVGSVHEGTIIEMLDKGAVVALPYGVEGFATPKHLVKEDGSQAQLDEKLEFKVIEFNKDAKRIILSHSRIFEDVAKAEERAEKKAASGAKKSSNNKREDAPMIQNQAASTTLGDIDALAALKEQLEGKKLEHHHHHH”, the “soluble on expression in E. coli” value was “soluble”.
